In IntAct's records for PubMed 17974954:

B1: Tyrosine-protein phosphatase non-receptor type 1 (Homo sapiens), P18031 (parent)
chain: MEMEKEFEQIDKSGSWAAIYQDIRHEASDFPCRVAKLPKNKNRNRYRDVSPFDHSRIKLHQEDNDYINASLIKMEEAQRSYILTQGPLPNTCGHFWEMVWEQKSRGVVMLNRVMEKGSLKCAQYWPQKEEKEMIFEDTNLKLTLISEDIKSYYTVRQLELENLTTQETREILHFHYTTWPDFGVPESPASFLNFLFKVRESGSLSPEHGPVVVHCSAGIGRSGTFCLADTCLLLMDKRKDPSSVDIKKVLLEMRKFRMGLIQTADQLRFSYLAVIEGAKFIMGDSSVQDQWKELSHEDLEPPPEHIPPPPRPPKRILEPHNGKCREFFPNHQWVKEETQEDKDCPIKEEKGSPLNAAPYGIESMSQDTEVRSRVVGGSLRGAQAASPAKGEPSLPEKDEDHALSYWKPFLVNMCVATVLTAGAYLCYRFLFNSNT

Variants of: B1
Conditions: with src_human SRC

| effect of a mutation on the interaction | Variant |
| --- | --- |
| disrupting interaction | MEMEKEFEQIDKSGSWAAIYQDIRHEASDFPCRVAKLPKNKNRNRYRDVSPFDHSRIKLHQEDNDYINASLIKMEEAQRSYILTQGPLPNTCGHFWEMVWEQKSRGVVMLNRVMEKGSLKCAQYWPQKEEKEMIFEDTNLKLTLISEDIKSYYTVRQLELENLTTQETREILHFHYTTWPDFGVPESPASFLNFLFKVRESGSLSPEHGPVVVHSSAGIGRSGTFCLADTCLLLMDKRKDPSSVDIKKVLLEMRKFRMGLIQTADQLRFSYLAVIEGAKFIMGDSSVQDQWKELSHEDLEPPPEHIPPPPRPPKRILEPHNGKCREFFPNHQWVKEETQEDKDCPIKEEKGSPLNAAPYGIESMSQDTEVRSRVVGGSLRGAQAASPAKGEPSLPEKDEDHALSYWKPFLVNMCVATVLTAGAYLCYRFLFNSNT [C215S] |
